Article doi:10.1101/2025.10.20.683411 (bioRxiv, 2025)

Assays:
yNup100FG (aa1-580) = yNup100FG (aa1-580) (yeast, UniProt Q02629 1-580, fluorescein-5-maleimide label (labelled protein mixed with unlabelled protein)); assay: fluorescence microscopy of particles formed by mixed purified labelled proteins
yNup116FG (aa1-725) = yNup116FG (aa1-725) (yeast, UniProt Q02630 1-725, fluorescein-5-maleimide label (labelled protein mixed with unlabelled protein)); assay: as above
hNup153 (aa875-1475) = target: T1, hNup153 (aa875-1475) (human, UniProt P49790 875-1475, fluorescein-5-maleimide label (labelled protein mixed with unlabelled protein)); assay: as above
T1 sequence: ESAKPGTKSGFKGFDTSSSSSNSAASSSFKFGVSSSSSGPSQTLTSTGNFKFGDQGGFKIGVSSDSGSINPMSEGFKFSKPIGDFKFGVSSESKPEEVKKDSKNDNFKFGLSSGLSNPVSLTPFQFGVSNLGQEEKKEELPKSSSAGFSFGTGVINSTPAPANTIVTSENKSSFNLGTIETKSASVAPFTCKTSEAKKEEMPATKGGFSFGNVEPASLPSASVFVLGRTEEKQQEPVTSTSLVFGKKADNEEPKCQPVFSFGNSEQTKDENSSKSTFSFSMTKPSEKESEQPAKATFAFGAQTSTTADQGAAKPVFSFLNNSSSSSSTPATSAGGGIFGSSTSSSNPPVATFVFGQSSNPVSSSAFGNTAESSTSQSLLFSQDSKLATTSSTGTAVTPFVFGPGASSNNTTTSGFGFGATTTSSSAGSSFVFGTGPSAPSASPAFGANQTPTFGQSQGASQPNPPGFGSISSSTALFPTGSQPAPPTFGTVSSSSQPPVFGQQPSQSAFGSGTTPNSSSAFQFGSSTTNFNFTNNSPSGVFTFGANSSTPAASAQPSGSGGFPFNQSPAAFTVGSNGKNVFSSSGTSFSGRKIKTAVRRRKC

[1] = target: the molecule itself; assay: as above
[2] = target: the molecule itself; assay: fluorescence microscopy of particles formed by one purified labelled protein

Measured: binding result

B1: DNAJB8 (natural protein, human)
chain: MANYYEVLGVQASASPEDIKKAYRKLALRWHPDKNPDNKEEAEKKFKLVSEAYEVLSDSKKRSLYDRAGCDSWRAGGGASTPYHSPFDTGYTFRNPEDIFREFFGGLDPFSFEFWDSPFNSDRGGRGHGLRGAFSAGFGEFPAFMEAFSSFNMLGCSGGSHTTFSSTSFGGSSSGSSGFKSVMSSTEMINGHKVTTKRIVENGQERVEVEEDGQLKSVTVNGKEQLKWMDSKC
modifications: Alexa Fluor 594 C5-maleimide label (labelled protein mixed with unlabelled protein)
not listed: [2]
binds: all other assays above

B2: DNAJB2 isoform a (natural protein, human)
chain: MASYYEILDVPRSASADDIKKAYRRKALQWHPDKNPDNKEFAEKKFKEVAEAYEVLSDKHKREIYDRYGREGLTGTGTGPSRAEAGSGGPGFTFTFRSPEEVFREFFGSGDPFAELFDDLGPFSELQNRGSRHSGPFFTFSSSFPGHSDFSSSSFSFSPGAGAFRSVSTSTTFVQGRRITTRRIMENGQERVEVEEDGQLKSVTINGVPDDLALGLELSRREQQPSVTSRSGGTQVQQTPASCPLDSDLSEDEDLQLAMAYSLSEMEAAGKKPADVFC
modifications: Alexa Fluor 594 C5-maleimide label (labelled protein mixed with unlabelled protein)
not listed: [2]
binds: all other assays above

B3: DNAJB6 isoform b, wildtype (natural protein)
chain: not shown
modifications: Alexa Fluor 594 C5-maleimide label (labelled protein mixed with unlabelled protein)
not listed: [1]
binds: all other assays above
